Reference: patent US20190055510A1, “WELL PLATE-BASED PERFUSION CULTURE MODEL OF ENDOSTEAL-EXTRACELLULAR MATRIX (ECM)-AND ENDOTHELIAL-MYELOMA INTERACTIONS AND METHODS FOR TESTING PERSONALIZED THERAPEUTICS FOR MULTIPLE MYELOMA” (Hackensack University Medical Center, priority 2016, published 2019)

What was measured:
Format in all cases: cell-based, human
CD138+ PMMCs [1] = assay: Drug response of CD138+ PMMCs co-cultured with osteoblast (OSB) tissue in 96-well plate-based perfusion culture, viability by flow cytometry; conditions: cultured with OSBs
Protocol: Using the 96-well plate-based culture platform described in Example 2, osteoblasts (OSBs) (hFOB 1.19 cell line) were cultured for 4 days at 20% O2 tension to form an ossified tissue structure. Patient bone marrow mononuclear cells (BMMCs) containing PMMCs, were seeded on the ossified tissue structure and cultured for up to 5 weeks. […] When O2 tension was decreased to 1%, the proliferation rate of PMMCs decreased (FIG. 2C) while their viability was not compromised (data not shown). […] PMMCs also acquired cell adhesion mediated drug resistance (CAM-DR) due to the adhesive interactions with OSBs.
The response of PMMCs to two commonly used drugs to treat MM patients: (1) carfilzomib, a proteasome inhibitor; and (2) melphalan, which is often used to treat newly diagnosed MM patients along with stem-cell transplantation, was evaluated. OSB tissue was cultured for 4 days either at 1 or 20% O2 prior to seeding of PMMCs. After seeding, PMMC-OSB cultures were dosed with either carfilizomib or melphalan. After 24 h, flow cytometry was used to analyze the viability of CD138+PMMCs. […] Dual Inhibition Of Mcl-1 By The Combination Of Carfilzomib and TG02 In Multiple Myeloma, (2013)). […] British journal of haematology 152, 579-592, doi:10.1111/j.1365-2141.2010.08533.x. (2011); Xiang, Y. et al. Monitoring a Nuclear Factor-κB Signature of Drug Resistance in Multiple Myeloma. […]

CD138+ PMMCs [2] = assay: Drug response of CD138+ PMMCs cultured in fibrin; conditions: in contrast to culture with OSBs (FIG. 3B)
Protocol: The response of PMMCs to two commonly used drugs to treat MM patients: (1) carfilzomib, a proteasome inhibitor; and (2) melphalan, which is often used to treat newly diagnosed MM patients along with stem-cell transplantation, was evaluated. OSB tissue was cultured for 4 days either at 1 or 20% O2 prior to seeding of PMMCs. After seeding, PMMC-OSB cultures were dosed with either carfilizomib or melphalan. After 24 h, flow cytometry was used to analyze the viability of CD138+PMMCs. […] Dual Inhibition Of Mcl-1 By The Combination Of Carfilzomib and TG02 In Multiple Myeloma, (2013)). […] British journal of haematology 152, 579-592, doi:10.1111/j.1365-2141.2010.08533.x. (2011); Xiang, Y. et al. Monitoring a Nuclear Factor-κB Signature of Drug Resistance in Multiple Myeloma. Molecular & Cellular Proteomics 10, doi:10.1074/mcp.M110.005520 (2011)).
In this study, fibrin was used to reconstruct extracellular matrix (ECM) niche tissue containing patient bone marrow mononuclear cells (BMMCs). […]

3D-osteocytes (OSTs) = assay: Continuous PTH treatment of 3D-reconstructed osteocytes, relative gene expression; conditions: 50 nM PTH for 2 days, compared to no treatment and 2D-OSTs controls (FIG. 4F)
Description: Cells and biphasic calcium phosphate (BCP) or polystyrene (PS) microbeads in the range of 20-25 μm (i.e, 20 μm, 21 μm, 22 μm, 23 μm, 24 μm and 25 μm) in diameter were assembled into the culture chamber, via forced liquid withdrawal through the PC membrane, to form a close-packed structure (FIG. 1). […] The cells entrapped within the interstitial spaces between the microbeads formed a 3D cellular network by extending and connecting their processes through openings between the microbeads over 2 weeks. […] The observed O2 tension effects are similar to those reported on the osteocytic differentiation of OSBs (Hirao, M. et al. Oxygen tension is an important mediator of the transformation of osteoblasts to osteocytes. Journal of bone and mineral metabolism 25, 266-276, doi:10.1007/s00774-007-0765-9 (2007); Chen, D. et al. HIF-1alpha inhibits Wnt signaling pathway by activating Sost expression in osteoblasts. PloS one 8, e65940, doi:10.1371/journal.pone.0065940 (2013); Clinkenbeard, E. L. et al. Neonatal iron deficiency causes abnormal phosphate metabolism by elevating FGF23 in normal and ADHR mice. Journal of bone and mineral research: the official journal of the American Society for Bone and Mineral Research 29, 361-369, doi:10.1002/jbmr.2049 (2014)).
In order to characterize the regulatory functions of 3D-osteocytes (OSTs) on osteoclastogenesis and osteoblastic development, the effects of continuous parathyroid hormone (PTH) treatment was evaluated.

## CC(C)C[C@H](NC(=O)[C@H](CCc1ccccc1)NC(=O)CN1CCOCC1)C(=O)N[C@@H](Cc1ccccc1)C(=O)N[C@@H](CC(C)C)C(=O)[C@@]1(C)CO1 [carfilzomib]
CD138+ PMMCs [1]; 100 nM carfilzomib, 20% O2, 24 h, flow cytometry (FIG. 3A)
  response (viability) of CD138+ PMMCs to carfilzomib: significant resistance

## N[C@@H](Cc1ccc(N(CCCl)CCCl)cc1)C(=O)O [melphalan]
CD138+ PMMCs [1]; 100 μM melphalan, both 1 and 20% O2, 24 h, flow cytometry (FIG. 3B)
  response (viability) of CD138+ PMMCs to melphalan: highly resistant
CD138+ PMMCs [2]
  sensitivity of CD138+ PMMCs to melphalan: significantly more sensitive

B1: parathyroid hormone (protein, UniProt P01270 32-115, looked up)
Parathyroid hormone: SVSEIQLMHNLGKHLNSMERVEWLRKKLQDVHNFVALGAPLAPRDAGSQRPRKKEDNVLVESHEKSLGEADKADVNVLTKAKSQ
modifications: Parathyroid hormone
notes: parathyroid hormone, known to induce OSTs to increase RANKL and decrease OPG and SOST gene expression
3D-osteocytes (OSTs)
  FGF23 gene expression: decreased
  OPG gene expression: decreased
  RANKL gene expression: increased
  SOST gene expression: decreased
